According to the RNAGym collection of RNA variant scans (doi:10.1021/acssynbio.7b00057):

B1: Pistol ribozyme (parent)
chain: GGGUCGUUGUUCCAUAAUCGCGUGGAUAUGGCACGCAAGUUUCUACCGGGCACCGUAAAUGUCCGACUGGAGCCGUUCGGGCGGCUAUAAACAGACCUCAGGCCCGAAGCGUGGCGGCACCUGCCGCCGGUGGUAAAAAAGAUCGGAAGAGCACACGUCU

Variants of: B1
Experiment: aptazyme ON/OFF ratio, guanine; higher = stronger switching; co-transcriptional cleavage with and without guanine

Point of comparison: GGGUCGGGAUAAAAUAAUCGCGUGGAUAUGGCACGCAAGUUUCUACCGGGCACCGUAAAUGUCCGACUGGAGCCGUUCGGGCGGCUAUAAACAGACCUCAGGCCCGAAGCGUGGCGGCACCUGCCGCCGGUGGUAAAAAAGAUCGGAAGAGCACACGUCU [U7G U8G G9A U11A C12A C13A], “aptazyme ON/OFF ratio” value 1.23. Against it:
- GGGUCGGGAUCGCAUAAUCGCGUGGAUAUGGCACGCAAGUUUCUACCGGGCACCGUAAAUGUCCGACUGGAGCCGUUCGGGCGGCUAUAAACAGACCUCAGGCCCGAAGCGUGGCGGCACCUGCCGCCGGUGGUAAAAAAGAUCGGAAGAGCACACGUCU [U7G U8G G9A U11C C12G] — higher, 1.33
- GGGUCGGGAUCUCAUAAUCGCGUGGAUAUGGCACGCAAGUUUCUACCGGGCACCGUAAAUGUCCGACUGGAGCCGUUCGGGCGGCUAUAAACAGACCUCAGGCCCGAAGCGUGGCGGCACCUGCCGCCGGUGGUAAAAAAGAUCGGAAGAGCACACGUCU [U7G U8G G9A U11C C12U] — higher, 1.65
- GGGUCGGGAUCACAUAAUCGCGUGGAUAUGGCACGCAAGUUUCUACCGGGCACCGUAAAUGUCCGACUGGAGCCGUUCGGGCGGCUAUAAACAGACCUCAGGCCCGAAGCGUGGCGGCACCUGCCGCCGGUGGUAAAAAAGAUCGGAAGAGCACACGUCU [U7G U8G G9A U11C C12A] — higher, 1.5
- GGGUCGGGAUCUAAUAAUCGCGUGGAUAUGGCACGCAAGUUUCUACCGGGCACCGUAAAUGUCCGACUGGAGCCGUUCGGGCGGCUAUAAACAGACCUCAGGCCCGAAGCGUGGCGGCACCUGCCGCCGGUGGUAAAAAAGAUCGGAAGAGCACACGUCU [U7G U8G G9A U11C C12U C13A] — higher, 1.31
- GGGUCGGGAGGGUAUAAUCGCGUGGAUAUGGCACGCAAGUUUCUACCGGGCACCGUAAAUGUCCGACUGGAGCCGUUCGGGCGGCUAUAAACAGACCUCAGGCCCGAAGCGUGGCGGCACCUGCCGCCGGUGGUAAAAAAGAUCGGAAGAGCACACGUCU [U7G U8G G9A U10G U11G C12G C13U] — lower, 1.11
- GGGUCGGGAGGGGAUAAUCGCGUGGAUAUGGCACGCAAGUUUCUACCGGGCACCGUAAAUGUCCGACUGGAGCCGUUCGGGCGGCUAUAAACAGACCUCAGGCCCGAAGCGUGGCGGCACCUGCCGCCGGUGGUAAAAAAGAUCGGAAGAGCACACGUCU [U7G U8G G9A U10G U11G C12G C13G] — higher, 1.25
- GGGUCGGGAUCGGAUAAUCGCGUGGAUAUGGCACGCAAGUUUCUACCGGGCACCGUAAAUGUCCGACUGGAGCCGUUCGGGCGGCUAUAAACAGACCUCAGGCCCGAAGCGUGGCGGCACCUGCCGCCGGUGGUAAAAAAGAUCGGAAGAGCACACGUCU [U7G U8G G9A U11C C12G C13G] — lower, 1.11
- GGGUCGGGAUCGUAUAAUCGCGUGGAUAUGGCACGCAAGUUUCUACCGGGCACCGUAAAUGUCCGACUGGAGCCGUUCGGGCGGCUAUAAACAGACCUCAGGCCCGAAGCGUGGCGGCACCUGCCGCCGGUGGUAAAAAAGAUCGGAAGAGCACACGUCU [U7G U8G G9A U11C C12G C13U] — higher, 1.35
- GGGUCGGGAUCGAAUAAUCGCGUGGAUAUGGCACGCAAGUUUCUACCGGGCACCGUAAAUGUCCGACUGGAGCCGUUCGGGCGGCUAUAAACAGACCUCAGGCCCGAAGCGUGGCGGCACCUGCCGCCGGUGGUAAAAAAGAUCGGAAGAGCACACGUCU [U7G U8G G9A U11C C12G C13A] — lower, 1.21
- GGGUCGGGAGGCUAUAAUCGCGUGGAUAUGGCACGCAAGUUUCUACCGGGCACCGUAAAUGUCCGACUGGAGCCGUUCGGGCGGCUAUAAACAGACCUCAGGCCCGAAGCGUGGCGGCACCUGCCGCCGGUGGUAAAAAAGAUCGGAAGAGCACACGUCU [U7G U8G G9A U10G U11G C13U] — lower, 1.22
- GGGUCGGGAGGCAAUAAUCGCGUGGAUAUGGCACGCAAGUUUCUACCGGGCACCGUAAAUGUCCGACUGGAGCCGUUCGGGCGGCUAUAAACAGACCUCAGGCCCGAAGCGUGGCGGCACCUGCCGCCGGUGGUAAAAAAGAUCGGAAGAGCACACGUCU [U7G U8G G9A U10G U11G C13A] — lower, 1.13
- GGGUCGGGAGGCGAUAAUCGCGUGGAUAUGGCACGCAAGUUUCUACCGGGCACCGUAAAUGUCCGACUGGAGCCGUUCGGGCGGCUAUAAACAGACCUCAGGCCCGAAGCGUGGCGGCACCUGCCGCCGGUGGUAAAAAAGAUCGGAAGAGCACACGUCU [U7G U8G G9A U10G U11G C13G] — higher, 1.41
- GGGUCGGGAUAACAUAAUCGCGUGGAUAUGGCACGCAAGUUUCUACCGGGCACCGUAAAUGUCCGACUGGAGCCGUUCGGGCGGCUAUAAACAGACCUCAGGCCCGAAGCGUGGCGGCACCUGCCGCCGGUGGUAAAAAAGAUCGGAAGAGCACACGUCU [U7G U8G G9A U11A C12A] — higher, 1.38
- GGGUCGGGAUAGCAUAAUCGCGUGGAUAUGGCACGCAAGUUUCUACCGGGCACCGUAAAUGUCCGACUGGAGCCGUUCGGGCGGCUAUAAACAGACCUCAGGCCCGAAGCGUGGCGGCACCUGCCGCCGGUGGUAAAAAAGAUCGGAAGAGCACACGUCU [U7G U8G G9A U11A C12G] — lower, 1.12
- GGGUCGGGAUAUCAUAAUCGCGUGGAUAUGGCACGCAAGUUUCUACCGGGCACCGUAAAUGUCCGACUGGAGCCGUUCGGGCGGCUAUAAACAGACCUCAGGCCCGAAGCGUGGCGGCACCUGCCGCCGGUGGUAAAAAAGAUCGGAAGAGCACACGUCU [U7G U8G G9A U11A C12U] — higher, 1.44
- GGGUCGGGAUACGAUAAUCGCGUGGAUAUGGCACGCAAGUUUCUACCGGGCACCGUAAAUGUCCGACUGGAGCCGUUCGGGCGGCUAUAAACAGACCUCAGGCCCGAAGCGUGGCGGCACCUGCCGCCGGUGGUAAAAAAGAUCGGAAGAGCACACGUCU [U7G U8G G9A U11A C13G] — lower, 1.06
- GGGUCGGGAUACUAUAAUCGCGUGGAUAUGGCACGCAAGUUUCUACCGGGCACCGUAAAUGUCCGACUGGAGCCGUUCGGGCGGCUAUAAACAGACCUCAGGCCCGAAGCGUGGCGGCACCUGCCGCCGGUGGUAAAAAAGAUCGGAAGAGCACACGUCU [U7G U8G G9A U11A C13U] — lower, 1.11
- GGGUCGGGAUACAAUAAUCGCGUGGAUAUGGCACGCAAGUUUCUACCGGGCACCGUAAAUGUCCGACUGGAGCCGUUCGGGCGGCUAUAAACAGACCUCAGGCCCGAAGCGUGGCGGCACCUGCCGCCGGUGGUAAAAAAGAUCGGAAGAGCACACGUCU [U7G U8G G9A U11A C13A] — higher, 1.35
- GGGUCGGGAGGUCAUAAUCGCGUGGAUAUGGCACGCAAGUUUCUACCGGGCACCGUAAAUGUCCGACUGGAGCCGUUCGGGCGGCUAUAAACAGACCUCAGGCCCGAAGCGUGGCGGCACCUGCCGCCGGUGGUAAAAAAGAUCGGAAGAGCACACGUCU [U7G U8G G9A U10G U11G C12U] — higher, 1.43
- GGGUCGGGAGGUUAUAAUCGCGUGGAUAUGGCACGCAAGUUUCUACCGGGCACCGUAAAUGUCCGACUGGAGCCGUUCGGGCGGCUAUAAACAGACCUCAGGCCCGAAGCGUGGCGGCACCUGCCGCCGGUGGUAAAAAAGAUCGGAAGAGCACACGUCU [U7G U8G G9A U10G U11G C12U C13U] — lower, 1.11
- GGGUCGGGAGGUAAUAAUCGCGUGGAUAUGGCACGCAAGUUUCUACCGGGCACCGUAAAUGUCCGACUGGAGCCGUUCGGGCGGCUAUAAACAGACCUCAGGCCCGAAGCGUGGCGGCACCUGCCGCCGGUGGUAAAAAAGAUCGGAAGAGCACACGUCU [U7G U8G G9A U10G U11G C12U C13A] — higher, 1.71
- GGGUCGGGAGGUGAUAAUCGCGUGGAUAUGGCACGCAAGUUUCUACCGGGCACCGUAAAUGUCCGACUGGAGCCGUUCGGGCGGCUAUAAACAGACCUCAGGCCCGAAGCGUGGCGGCACCUGCCGCCGGUGGUAAAAAAGAUCGGAAGAGCACACGUCU [U7G U8G G9A U10G U11G C12U C13G] — higher, 1.27
- GGGUCGGGAUCAAAUAAUCGCGUGGAUAUGGCACGCAAGUUUCUACCGGGCACCGUAAAUGUCCGACUGGAGCCGUUCGGGCGGCUAUAAACAGACCUCAGGCCCGAAGCGUGGCGGCACCUGCCGCCGGUGGUAAAAAAGAUCGGAAGAGCACACGUCU [U7G U8G G9A U11C C12A C13A] — higher, 1.39
- GGGUCGGGAUCAGAUAAUCGCGUGGAUAUGGCACGCAAGUUUCUACCGGGCACCGUAAAUGUCCGACUGGAGCCGUUCGGGCGGCUAUAAACAGACCUCAGGCCCGAAGCGUGGCGGCACCUGCCGCCGGUGGUAAAAAAGAUCGGAAGAGCACACGUCU [U7G U8G G9A U11C C12A C13G] — lower, 1.15
- GGGUCGGGAUCAUAUAAUCGCGUGGAUAUGGCACGCAAGUUUCUACCGGGCACCGUAAAUGUCCGACUGGAGCCGUUCGGGCGGCUAUAAACAGACCUCAGGCCCGAAGCGUGGCGGCACCUGCCGCCGGUGGUAAAAAAGAUCGGAAGAGCACACGUCU [U7G U8G G9A U11C C12A C13U] — higher, 1.41
- GGGUCGGGAUACCAUAAUCGCGUGGAUAUGGCACGCAAGUUUCUACCGGGCACCGUAAAUGUCCGACUGGAGCCGUUCGGGCGGCUAUAAACAGACCUCAGGCCCGAAGCGUGGCGGCACCUGCCGCCGGUGGUAAAAAAGAUCGGAAGAGCACACGUCU [U7G U8G G9A U11A] — higher, 2.46
- GGGUCGGGAUCCCAUAAUCGCGUGGAUAUGGCACGCAAGUUUCUACCGGGCACCGUAAAUGUCCGACUGGAGCCGUUCGGGCGGCUAUAAACAGACCUCAGGCCCGAAGCGUGGCGGCACCUGCCGCCGGUGGUAAAAAAGAUCGGAAGAGCACACGUCU [U7G U8G G9A U11C] — higher, 1.54
- GGGUCGGGAUAAUAUAAUCGCGUGGAUAUGGCACGCAAGUUUCUACCGGGCACCGUAAAUGUCCGACUGGAGCCGUUCGGGCGGCUAUAAACAGACCUCAGGCCCGAAGCGUGGCGGCACCUGCCGCCGGUGGUAAAAAAGAUCGGAAGAGCACACGUCU [U7G U8G G9A U11A C12A C13U] — higher, 1.38
- GGGUCGGGAUAAGAUAAUCGCGUGGAUAUGGCACGCAAGUUUCUACCGGGCACCGUAAAUGUCCGACUGGAGCCGUUCGGGCGGCUAUAAACAGACCUCAGGCCCGAAGCGUGGCGGCACCUGCCGCCGGUGGUAAAAAAGAUCGGAAGAGCACACGUCU [U7G U8G G9A U11A C12A C13G] — lower, 1.14
- GGGUCGGGAUAUGAUAAUCGCGUGGAUAUGGCACGCAAGUUUCUACCGGGCACCGUAAAUGUCCGACUGGAGCCGUUCGGGCGGCUAUAAACAGACCUCAGGCCCGAAGCGUGGCGGCACCUGCCGCCGGUGGUAAAAAAGAUCGGAAGAGCACACGUCU [U7G U8G G9A U11A C12U C13G] — lower, 1.12
- GGGUCGGGAUAUAAUAAUCGCGUGGAUAUGGCACGCAAGUUUCUACCGGGCACCGUAAAUGUCCGACUGGAGCCGUUCGGGCGGCUAUAAACAGACCUCAGGCCCGAAGCGUGGCGGCACCUGCCGCCGGUGGUAAAAAAGAUCGGAAGAGCACACGUCU [U7G U8G G9A U11A C12U C13A] — lower, 1.15
- GGGUCGGGAUAUUAUAAUCGCGUGGAUAUGGCACGCAAGUUUCUACCGGGCACCGUAAAUGUCCGACUGGAGCCGUUCGGGCGGCUAUAAACAGACCUCAGGCCCGAAGCGUGGCGGCACCUGCCGCCGGUGGUAAAAAAGAUCGGAAGAGCACACGUCU [U7G U8G G9A U11A C12U C13U] — lower, 1.22
- GGGUCGGGAUAGAAUAAUCGCGUGGAUAUGGCACGCAAGUUUCUACCGGGCACCGUAAAUGUCCGACUGGAGCCGUUCGGGCGGCUAUAAACAGACCUCAGGCCCGAAGCGUGGCGGCACCUGCCGCCGGUGGUAAAAAAGAUCGGAAGAGCACACGUCU [U7G U8G G9A U11A C12G C13A] — lower, 1.03
- GGGUCGGGAUAGGAUAAUCGCGUGGAUAUGGCACGCAAGUUUCUACCGGGCACCGUAAAUGUCCGACUGGAGCCGUUCGGGCGGCUAUAAACAGACCUCAGGCCCGAAGCGUGGCGGCACCUGCCGCCGGUGGUAAAAAAGAUCGGAAGAGCACACGUCU [U7G U8G G9A U11A C12G C13G] — lower, 1.06
- GGGUCGGGAUAGUAUAAUCGCGUGGAUAUGGCACGCAAGUUUCUACCGGGCACCGUAAAUGUCCGACUGGAGCCGUUCGGGCGGCUAUAAACAGACCUCAGGCCCGAAGCGUGGCGGCACCUGCCGCCGGUGGUAAAAAAGAUCGGAAGAGCACACGUCU [U7G U8G G9A U11A C12G C13U] — lower, 1.15
